The target in assay [1] is BBK32-C (C-terminal region of BBK32, residues 206-354) (B. burgdorferi B31) (UniProt O50835). Briefly: SPR; Biacore 3000, 25°C; BBK32 proteins immobilised by amine coupling on a C1 sensor chip; running buffer HBS-T-Ca2+ (20 mM HEPES pH 7.3, 140 mM NaCl, 0.005% Tween 20, 5 mM CaCl2), 10 μl/min; C1 0.2-100 nM, C1r enzyme 0.39-200 nM or 2.0-1000 nM series, 1:1 (Langmuir) kinetic fit; single C1 components at a fixed 50 nM.

Assay [2] has as its target BBK32-FL (recombinant BBK32, residues 21 to 354) (B. burgdorferi B31) (UniProt O50835). The description is as above.
Assay [3] addresses C1r enzyme (activated human complement C1r protease) (human).
Assay [4] deals with first component of human complement, C1 (C1 complex) (human) (UniProt P02745).

As usually defined, the Kd is the constant that tells how readily two partners part at equilibrium. For orientation: koff means a measure of how fast the partners let go of each other. For orientation: kon means the second-order rate constant of association.

Regarding “C1r enzyme (activated human complement C1r protease)”, in assay [1], the Kd is 32 nM, the koff is 0.00011 s⁻¹ and the kon stood at 3900 M⁻¹ s⁻¹. For the same molecule, in assay [2], the Kd stood at 15 nM, the koff amounted to 0.00022 s⁻¹ and the association rate constant (kon) was 19000 M⁻¹ s⁻¹.
In assay [1], “first component of human complement, C1 (C1 complex) (from UniProt P02745 23-245; P02746 28-253; P02747 29-245)” returned a dissociation constant (Kd) of 2.3 nM.

B1: BBK32-C (C-terminal region of BBK32, residues 206-354) (domain or fragment)
chain: SNRYQSYLEGVKYNVDSAIQTITKIYNTYTLFSTKLTQMYSTRLDNFAKAKAKEEAAKFTKEDLEKNFKTLLNYIQVSVKTAANFVYINDTHAKRKLENIEAEIKTLIAKIKEQSNLYEAYKAIVTSILLMRDSLKEVQGIIDKNGVWY
Turning to B1, the IC50 of C1r enzyme activity (cleavage of C1s proenzyme by 50 nM C1r enzyme, SDS-PAGE densitometry) in assay [3] was 540 nM. For the same molecule, in assay [4], the IC50 of classical pathway inhibition, ELISA: C3b detection (immobilised human IgM, 1% human serum) amounted to 4.7 nM; the IC50 of classical pathway inhibition, ELISA: C4b detection (immobilised human IgM, 1% human serum) is 5.6 nM; the IC50 of inhibition of CP-mediated hemolysis (CP50, sensitized sheep erythrocytes, 1% normal human serum) was determined as 60 nM.

B2: BBK32-FL (recombinant BBK32, residues 21 to 354) (natural protein)
chain: DLFIRYEMKEESPGLFDKGNSILETSEESIKKPMNKKGKGKIARKKGKSKVSRKEPYIHSLKRDSANKSNFLQKNVILEEESLKTELLKEQSETRKEKIQKQQDEYKGMTQGSLNSLSGESGELEEPIESNEIDLTIDSDLRPKSSLQGIAGSNSISYTDEIEEEDYDQYYLDEYDEEDEEEIRLSNRYQSYLEGVKYNVDSAIQTITKIYNTYTLFSTKLTQMYSTRLDNFAKAKAKEEAAKFTKEDLEKNFKTLLNYIQVSVKTAANFVYINDTHAKRKLENIEAEIKTLIAKIKEQSNLYEAYKAIVTSILLMRDSLKEVQGIIDKNGVWY
In assay [3], B2 displayed an IC50 of C1r enzyme activity (cleavage of C1s proenzyme by 50 nM C1r enzyme, SDS-PAGE densitometry) of 670 nM. Moreover, in assay [4], the IC50 of classical pathway inhibition, ELISA: C3b detection (immobilised human IgM, 1% human serum) amounted to 34 nM; the IC50 of classical pathway inhibition, ELISA: C4b detection (immobilised human IgM, 1% human serum) came out at 34 nM; the IC50 of inhibition of CP-mediated hemolysis (CP50, sensitized sheep erythrocytes, 1% normal human serum) turned out to be 110 nM.

For the origin of these results see publication PMC4725857.
